Results on one substance are retold here after paper PMC3144414.

Experiment [1] deals with GMPCPP microtubules (polymerised from porcine brain tubulin with GMPCPP) (porcine) (UniProt P02550). The experiment is described as follows: in vitro MT-binding assay by epifluorescence microscopy.
The target in experiment [2] is GDP microtubules (polymerised from porcine brain tubulin with GTP) (porcine) (UniProt P02550). The description is as above.

As usually defined, the Kd is the equilibrium constant for the complex coming apart. Read a low Kd as higher affinity. “KIF5C monomeric motor domain (K351) (domain or fragment)”: the values for the Kd in experiment [1] and in experiment [2] were 250 nM and 930 nM, respectively.
